Laboratory results from article PMC10000386.

B1: Bak [human] / Bak [human] (parent)
chain 1: MASGQGPGPPRQECGEPALPSASEEQVAQDTEEVFRSYVFYRHQQEQEAEGVAAPADPEMVTLPLQPSSTMGQVGRQLAIIGDDINRRYDSEFQTMLQHLQPTAENAYEYFTKIATSLFESGINWGRVVALLGFGYRLALHVYQHGLTGFLGQVTRFVVDFMLHHCIARWIAQRGGWVAALNLGNGPILNVLVVLGVVLLGQFVVRRFFKS
chain 2: B1 chain 1

Variants of: B1
Test: BiFC (flow cytometry)
Details: with Bak [human]; 6 independent experiments (H164A), 8 (WT); read off a plot

Variant	response (Mean Venus/Mean mRFP)
chain 1 H164A	1.8

Same assay, conditions: with Bak [human]; 6 independent experiments; read off a plot

Variant	response (Mean Venus/Mean mRFP)
chain 1 H164A	1.8
